Measured values: the Human Domainome abundance scans (Beltran et al. 2025)
± gives the uncertainty stated by the source.

B1: POU domain, class 2, transcription factor 2, residues 200 to 269; numbered along this chain, P09086 (parent)
chain: LEELEQFARTFKQRRIKLGFTQGDVGLAMGKLYGNDFSQTTISRFEALNLSFKNMCKLKPLLEKWLNDAE

Variants of: B1
Experiment: abundance fitness (aPCA) (normalised: wild type 0, dead -1); higher = more abundant; growth selection in yeast, the domain comes from the species named
Conditions: Homo sapiens

Q: For LEELEQFARTFKQRRIKLGFTQGDVGLAMGKLYGNDFSQTCISRFEALNLSFKNMCKLKPLLEKWLNDAE, which abundance fitness is on record?
A: The abundance fitness was 0.094 ± 0.097.

Q: For LEELEQFARTFKQRRIKLGFTQGDVGLAMGKLYGNDFSQTIISRFEALNLSFKNMCKLKPLLEKWLNDAE, which abundance fitness is on record?
A: Its abundance fitness is -0.108 ± 0.12.

Q: With LEELEQFARTFKQRRIKLGFTQGDVGLAMGKLYGNDFSQTAISRFEALNLSFKNMCKLKPLLEKWLNDAE as the variant, how does the abundance fitness read?
A: The abundance fitness was -0.048 ± 0.064.

Q: For LEELEQFARTFKQRRIKLGFTQGDVGLAMGKLYGNDFSQTDISRFEALNLSFKNMCKLKPLLEKWLNDAE, which abundance fitness is on record?
A: The abundance fitness was 0.029 ± 0.14.

Q: For LEELEQFARTFKQRRIKLGFTQGDVGLAMGKLYGNDFSQTGISRFEALNLSFKNMCKLKPLLEKWLNDAE, which abundance fitness is on record?
A: Its abundance fitness is -0.193 ± 0.039.

Q: For LEELEQFARTFKQRRIKLGFTQGDVGLAMGKLYGNDFSQTHISRFEALNLSFKNMCKLKPLLEKWLNDAE, which abundance fitness is on record?
A: Its abundance fitness is 0.023 ± 0.073.

Q: Which abundance fitness does the source give for LEELEQFARTFKQRRIKLGFTQGDVGLAMGKLYGNDFSQTFISRFEALNLSFKNMCKLKPLLEKWLNDAE here?
A: Its abundance fitness is -0.114 ± 0.097.

Q: With LEELEQFARTFKQRRIKLGFTQGDVGLAMGKLYGNDFSQTEISRFEALNLSFKNMCKLKPLLEKWLNDAE as the variant, how does the abundance fitness read?
A: Its abundance fitness is -0.029 ± 0.093.

Q: Which abundance fitness does the source give for LEELEQFARTFKQRRIKLGFTQGDVGLAMGKLYGNDFSQTKISRFEALNLSFKNMCKLKPLLEKWLNDAE here?
A: Its abundance fitness is -0.09 ± 0.027.

Q: Which abundance fitness does the source give for LEELEQFARTFKQRRIKLGFTQGDVGLAMGKLYGNYFSQTTISRFEALNLSFKNMCKLKPLLEKWLNDAE here?
A: The abundance fitness was 0.013 ± 0.09.

Q: Which abundance fitness does the source give for LEELEQFARTFKQRRIKLGFTQGDVGLAMGKLYGNDTSQTTISRFEALNLSFKNMCKLKPLLEKWLNDAE here?
A: Its abundance fitness is -0.175 ± 0.065.

Q: Which abundance fitness does the source give for LEELEQFARTFKQRRIKLGFTQGDVGLAMGKLYGNDRSQTTISRFEALNLSFKNMCKLKPLLEKWLNDAE here?
A: The abundance fitness was -0.39 ± 0.044.

Q: Which abundance fitness does the source give for LEELEQFARTFKQRRIKLGFTQGDVGLAMGKLYGNDLSQTTISRFEALNLSFKNMCKLKPLLEKWLNDAE here?
A: Its abundance fitness is -0.052 ± 0.039.

Q: With LEELEQFARTFKQRRIKLGFTQGDVGLAMGKLYGNDISQTTISRFEALNLSFKNMCKLKPLLEKWLNDAE as the variant, how does the abundance fitness read?
A: The abundance fitness was 0.088 ± 0.068.

Q: With LEELEQFARTFKQRRIKLGFTQGDVGLAMGKLYGNDHSQTTISRFEALNLSFKNMCKLKPLLEKWLNDAE as the variant, how does the abundance fitness read?
A: Its abundance fitness is -0.093 ± 0.13.

Q: With LEELEQFARTFKQRRIKLGFTQGDVGLAMGKLYGNDMSQTTISRFEALNLSFKNMCKLKPLLEKWLNDAE as the variant, how does the abundance fitness read?
A: The abundance fitness was -0.024 ± 0.076.

Q: For LEELEQFARTFKQRRIKLGFTQGDVGLAMGKLYGNDKSQTTISRFEALNLSFKNMCKLKPLLEKWLNDAE, which abundance fitness is on record?
A: Its abundance fitness is -0.434 ± 0.065.

Q: Which abundance fitness does the source give for LEELEQFARTFKQRRIKLGFTQGDVGLAMGKLYGNDQSQTTISRFEALNLSFKNMCKLKPLLEKWLNDAE here?
A: The abundance fitness was -0.061 ± 0.073.

Q: With LEELEQFARTFKQRRIKLGFTQGDVGLAMGKLYGNDCSQTTISRFEALNLSFKNMCKLKPLLEKWLNDAE as the variant, how does the abundance fitness read?
A: Its abundance fitness is -0.06 ± 0.065.

Q: For LEELEQFARTFKQRRIKLGFTQGDVGLAMGKLYGNDGSQTTISRFEALNLSFKNMCKLKPLLEKWLNDAE, which abundance fitness is on record?
A: The abundance fitness was -0.28 ± 0.044.

Q: For LEELEQFARTFKQRRIKLGFTQGDVGLAMGKLYGNDSSQTTISRFEALNLSFKNMCKLKPLLEKWLNDAE, which abundance fitness is on record?
A: The abundance fitness was -0.24 ± 0.049.

Q: For LEELEQFARTFKQRRIKLGFTQGDVGLAMGKLYGNDYSQTTISRFEALNLSFKNMCKLKPLLEKWLNDAE, which abundance fitness is on record?
A: The abundance fitness was -0.048 ± 0.092.

Q: Which abundance fitness does the source give for LEELEQFARTFKQRRIKLGFTQGDVGLAMGKLYGNDASQTTISRFEALNLSFKNMCKLKPLLEKWLNDAE here?
A: Its abundance fitness is -0.152 ± 0.056.

Q: Which abundance fitness does the source give for LEELEQFARTFKQRRIKLGFTQGDVGLAMGKLYGNDESQTTISRFEALNLSFKNMCKLKPLLEKWLNDAE here?
A: Its abundance fitness is -0.255 ± 0.08.

Q: For LEELEQFARTFKQRRIKLGFTQGDVGLAMGKLYGNDDSQTTISRFEALNLSFKNMCKLKPLLEKWLNDAE, which abundance fitness is on record?
A: The abundance fitness was -0.4 ± 0.091.

Q: With LEELEQFARTFKQRRIKLGFTQGDVGLAMGKLYGNDWSQTTISRFEALNLSFKNMCKLKPLLEKWLNDAE as the variant, how does the abundance fitness read?
A: Its abundance fitness is -0.012 ± 0.049.

Q: Which abundance fitness does the source give for LEELEQFARTFKQRRIKLGFTQGDVGLAMGKLYGNDVSQTTISRFEALNLSFKNMCKLKPLLEKWLNDAE here?
A: The abundance fitness was -0.065 ± 0.041.

Q: With LEELEQFARTFKQRRIKLGFTQGDVGLAMGKLYGNDFSATTISRFEALNLSFKNMCKLKPLLEKWLNDAE as the variant, how does the abundance fitness read?
A: Its abundance fitness is -0.032 ± 0.034.

Q: With LEELEQFARTFKQRRIKLGFTQGDVGLAMGKLYGNDFSETTISRFEALNLSFKNMCKLKPLLEKWLNDAE as the variant, how does the abundance fitness read?
A: Its abundance fitness is 0.01 ± 0.037.

Q: For LEELEQFARTFKQRRIKLGFTQGDVGLAMGKLYGNDFSVTTISRFEALNLSFKNMCKLKPLLEKWLNDAE, which abundance fitness is on record?
A: The abundance fitness was -0.002 ± 0.031.

Q: For LEELEQFARTFKQRRIKLGFTQGDVGLAMGKLYGNDFSPTTISRFEALNLSFKNMCKLKPLLEKWLNDAE, which abundance fitness is on record?
A: The abundance fitness was 0.035 ± 0.048.

Q: For LEELEQFARTFKQRRIKLGFTQGDVGLAMGKLYGNDFSRTTISRFEALNLSFKNMCKLKPLLEKWLNDAE, which abundance fitness is on record?
A: The abundance fitness was -0.019 ± 0.028.

Q: Which abundance fitness does the source give for LEELEQFARTFKQRRIKLGFTQGDVGLAMGKLYGNDFSLTTISRFEALNLSFKNMCKLKPLLEKWLNDAE here?
A: Its abundance fitness is -0.046 ± 0.037.

Q: With LEELEQFARTFKQRRIKLGFTQGDVGLAMGKLYGNDFSDTTISRFEALNLSFKNMCKLKPLLEKWLNDAE as the variant, how does the abundance fitness read?
A: The abundance fitness was 0.017 ± 0.082.

Q: For LEELEQFARTFKQRRIKLGFTQGDVGLAMGKLYGNDFSSTTISRFEALNLSFKNMCKLKPLLEKWLNDAE, which abundance fitness is on record?
A: The abundance fitness was 0.005 ± 0.047.

Q: With LEELEQFARTFKQRRIKLGFTQGDVGLAMGKLYGNDFSKTTISRFEALNLSFKNMCKLKPLLEKWLNDAE as the variant, how does the abundance fitness read?
A: Its abundance fitness is -0.029 ± 0.056.

Q: Which abundance fitness does the source give for LEELEQFARTFKQRRIKLGFTQGDVGLAMGKLYGNDFSGTTISRFEALNLSFKNMCKLKPLLEKWLNDAE here?
A: Its abundance fitness is -0.027 ± 0.031.

Q: Which abundance fitness does the source give for LEELEQFARTFKQRRIKLGFTQGDVGLAMGKLYGNDFSTTTISRFEALNLSFKNMCKLKPLLEKWLNDAE here?
A: Its abundance fitness is 0.042 ± 0.05.
